{"source": "paper PMC9786865", "about": "“Molecular Cloning and Characterization of a New Family VI Esterase from an Activated Sludge Metagenome” (Microorganisms, 2022)", "proteins": {"B1": {"name": "Est6 (uncultured sludge bacterium) (protein)", "chain": "MTELRINDDLVRWTVDRRPATADEALRALETRPLVLLMHGFGSFEGDLISLAAELPDGIVCASPRAPLTLPPPTVNGYAWWEIVFRADGTVVRSDPPAFEDSDAHTATLAILAWLDALDARVAGGLRTVVPLGFSQGGCMVTSLLRMQPTRFPCGVNCSGFVAPGSYAGDPELAAIRPPLFWGRDPADPIIEAERIDATAVWSAAHTAIEAHIYHGIGHGIGREEIADISAFIERHLAEAEH", "notes": "pPAL7 N-terminal Profinity eXact tag cleaved on column; E. coli BL21 Star (DE3); monomer; primers encode MTELRI... start and ...AEAEH end"}}, "substrate": "CC(=O)Oc1ccc([N+](=O)[O-])cc1", "assay": "purified protein", "assay_type": "biochemical, uncultured sludge bacterium", "details": "50 mM Tris-HCl pH 8.0, 40 °C, 5 min, 0.08-1.0 mM substrate", "data": [{"protein": "B1", "values": [{"measurement": "Km", "result": 1070, "unit": "µM"}, {"measurement": "kcat", "result": 10.46, "unit": "s⁻¹"}]}]}
